Biological target: T1, Mushroom tyrosinase (mushroom, UniProt C7FF04 1-392)
Experiment: cell-based or functional assay

T1 sequence (C7FF04 1-392): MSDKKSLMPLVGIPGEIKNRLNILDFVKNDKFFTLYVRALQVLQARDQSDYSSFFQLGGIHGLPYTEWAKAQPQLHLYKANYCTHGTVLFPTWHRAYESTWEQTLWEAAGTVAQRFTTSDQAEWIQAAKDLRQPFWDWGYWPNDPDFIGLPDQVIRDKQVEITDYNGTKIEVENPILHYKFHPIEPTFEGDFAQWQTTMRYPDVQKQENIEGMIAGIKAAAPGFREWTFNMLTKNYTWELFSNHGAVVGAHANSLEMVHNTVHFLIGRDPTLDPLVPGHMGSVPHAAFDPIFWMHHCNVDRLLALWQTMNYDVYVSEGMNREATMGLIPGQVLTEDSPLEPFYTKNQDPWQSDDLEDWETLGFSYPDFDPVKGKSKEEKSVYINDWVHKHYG

Binder | IC50 [µM], mushroom tyrosinase inhibition (dopachrome OD 475 nm, L-tyrosine substrate) [µM]
RRYWYWRR (Synthetic octapeptide) [P18 peptide] | 282
RRRYWYYR (Synthetic octapeptide) [P17 peptide] | 398
RRWWRRYY (Synthetic octapeptide) [P16 peptide] | 238
RRVAL [P13 peptide] | 2200
RRFVLL [P14 peptide] | 1770

Biological target: T1, Mushroom tyrosinase
Experiment: enzyme kinetics on mushroom tyrosinase, Lineweaver-Burk / nonlinear regression, differs from Table 4
Procedure: Tyrosinase inhibitory activity was determined in vitro using L-tyrosine or L-dopa as the substrate following a modified method from Piao, L. Z., Park, H. R., Park, Y. K., Lee, S. K., Park, J. H., and Park, M. K. (2002) Chem Pharm Bull (Tokyo) 50, 309-311. The concentration of enzyme, substrate and inhibitor was denoted as [E], [S] and [I], respectively. The experiment was conducted in a 96-well flat-bottomed plate. Each well contained 80 μl of 0.067 M potassium phosphate buffer (pH 6.8), 40 μl of 5 mg/ml L-tyrosine dissolved in 0.067 M potassium phosphate buffer (pH 6.8), 40 μl of the different concentrations of inhibitors dissolved in the same buffer, and 40 μl of 480 units/ml mushroom tyrosinase solution. The final volume of each well was 200 μl, containing 1 mg/ml [S], 96 units/ml [E] and varying concentrations of [I] ranging from 1 μM to 10 mM. For the negative control wells, the inhibitors were substituted with buffer solution and adjusted to the total volume of 200 μl. HQ served as a positive control to calibrate the assay as a wide range of IC₅₀ values has been previously reported (Neeley, E., Fritch, G., Fuller, A., Wolfe, J., Wright, J., and Flurkey, W. (2009) Int J Mol Sci 10, 3811-3823). The assay mixture was incubated at 37° C. The optical density of the reaction mixtures, which correlates with the amount of dopachrome produced, was measured at 475 nm using a Varioskan microplate reader (Thermo Electron Corporation, San Jose, Calif.) at different time periods. For assessment of the 2nd step of melanin synthesis, we used L-dopa as the substrate and freshly extracted human tyrosinase as previously described (Abu Ubeid, A., Zhao, L., Wang, Y., and Hantash, B. M. (2009) J Invest Dermatol 129, 2242-2249).
The kinetics and mode of inhibition for P16-18 (SEQ ID NO: 1, 2 and 3 respectively) and HQ was determined using a standard assay (Pomerantz, S. H. (1966) J Biol Chem 241, 161-168). As illustrated by Lineweaver-Burk plots shown in FIG. 3, the Vₘₐₓ was independent of […] for HQ and all 3 octapeptides, whereas the Kₘ was altered.

Binder | Ki [µM]
RRYWYWRR (Synthetic octapeptide) [P18 peptide] | 179
RRRYWYYR (Synthetic octapeptide) [P17 peptide] | 190
RRWWRRYY (Synthetic octapeptide) [P16 peptide] | 167
